The values that follow come from US20080293631.

The target of this series is T1, endothelial protein C receptor (UniProt Q9UNN8).
T1 sequence: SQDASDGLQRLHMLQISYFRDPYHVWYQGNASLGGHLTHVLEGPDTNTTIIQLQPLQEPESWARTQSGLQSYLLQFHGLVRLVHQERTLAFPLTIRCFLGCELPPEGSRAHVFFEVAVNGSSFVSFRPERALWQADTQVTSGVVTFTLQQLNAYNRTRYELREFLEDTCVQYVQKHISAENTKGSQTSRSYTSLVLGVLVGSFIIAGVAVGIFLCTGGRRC

As to Activated protein C, the “LPS-induced NF-κB activity (western blot for the active form of NF-κB in lysates of RA monocytes)” value is given as “APC's inhibitory effect on LPS-induced NF-κB activity was almost totally reversed by RCR252, whereas RCR92 had only limited effect”.
